One assay has as its target T1, Bovine serum albumin (bovine, UniProt P02769 25-607).
T1 construct: Negative control antigen in ELISA; also called BSA
The assay is described as follows: ELISA on 1% BSA, HEK supernatant, anti-human IgG-HRP, n=1. How it is done:
Antigen was removed from wells and the plates were then blocked for 1 hour at RT with 5% dried milk in 1×TBS. Blocking solution was removed, HEK293 cell supernatant (1:100 in 1% BSA/1×TBS) was added to relevant wells, and plates were incubated for 1 hour at RT with gentle shaking. Plates were then washed four times with TBS/0.1% Tween (TBST). Goat-anti-human IgG-HRP antibody (ThermoFisher Scientific, Waltham, Mass. USA), diluted 1:2000 in 5% milk/TBS, was added to each well and plates were incubated for 1 hour at RT with gentle shaking before being washed four times with TBST. 3,3′,5,5′-tetramethylbenzidine (TMB) ELISA solution was added to each well and plates were incubated for 15 mins at RT. An equal volume of 1 M sulfuric acid was added to each well and OD was measured at 450 nm.
For orientation: An ELISA detects its analyte on a solid surface through an enzyme-linked reagent.

Assay [1] concerns the target T2, full length recombinant human 2N4R tau (amino acids 1-441) (human, UniProt P10636 1-758).
T2 construct: Bought (rPeptide); recombinant, non-phosphorylated; also called recombinant tau
Put plainly: SPR Biacore SCK, IgG on Protein A, tau analyte. How it is done: 23.5 Assessment of antibody binding to tau (Biacore SCK analysis): Binding of anti-tau hIgG1 to full length recombinant 2N4R tau (Rpeptide; SEQ ID NO: 2) was assessed using the Biacore T200 (GE Healthcare, Chicago, Ill., USA) running Biacore T200 Evaluation Software V2.0.1. hIgG1 were immobilised on a Protein A capture sensor chip in running buffer (HBS-EP+ buffer containing 1 mg/mL BSA) at 25° C. captured to ˜50 RU at 10 μL/min. For single-cycle kinetics experiments, recombinant 2N4R tau was flowed at concentrations ranging from 5 nM to 40 nM (2-fold dilutions) with an association time of 150 s and a dissociation time of 200 s. Curves were compared to a reference cell that was mock immobilized (no antibody present).
Data were analysed using Langmuir (1:1) binding analysis, describing a 1:1 interaction at the surface: […]
A general note: In SPR one partner is held on a chip, and binding of the other changes the refractive index at the surface.

For orientation: Kd means a measure of binding affinity in units of concentration. For orientation: koff means the first-order rate constant of dissociation. In general, kon refers to the rate constant with which the complex forms.

T1 sequence (P02769 25-607 limits assumed): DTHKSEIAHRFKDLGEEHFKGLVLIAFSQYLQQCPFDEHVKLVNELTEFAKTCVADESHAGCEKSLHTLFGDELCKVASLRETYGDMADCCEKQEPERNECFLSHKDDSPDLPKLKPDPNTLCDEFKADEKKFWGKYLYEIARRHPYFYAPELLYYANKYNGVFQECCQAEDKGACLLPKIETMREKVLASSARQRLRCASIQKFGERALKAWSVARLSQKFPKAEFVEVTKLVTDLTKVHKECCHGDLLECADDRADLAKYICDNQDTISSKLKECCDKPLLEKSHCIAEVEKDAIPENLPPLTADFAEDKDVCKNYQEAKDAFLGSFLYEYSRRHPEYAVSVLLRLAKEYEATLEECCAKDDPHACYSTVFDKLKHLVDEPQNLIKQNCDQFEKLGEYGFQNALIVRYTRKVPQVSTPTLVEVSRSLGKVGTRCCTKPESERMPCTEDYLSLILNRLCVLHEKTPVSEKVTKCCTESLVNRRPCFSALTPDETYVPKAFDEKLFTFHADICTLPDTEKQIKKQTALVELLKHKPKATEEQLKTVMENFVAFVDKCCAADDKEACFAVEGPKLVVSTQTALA
T2 sequence (P10636 other isoform, or with tags, fused parts or gaps limits assumed): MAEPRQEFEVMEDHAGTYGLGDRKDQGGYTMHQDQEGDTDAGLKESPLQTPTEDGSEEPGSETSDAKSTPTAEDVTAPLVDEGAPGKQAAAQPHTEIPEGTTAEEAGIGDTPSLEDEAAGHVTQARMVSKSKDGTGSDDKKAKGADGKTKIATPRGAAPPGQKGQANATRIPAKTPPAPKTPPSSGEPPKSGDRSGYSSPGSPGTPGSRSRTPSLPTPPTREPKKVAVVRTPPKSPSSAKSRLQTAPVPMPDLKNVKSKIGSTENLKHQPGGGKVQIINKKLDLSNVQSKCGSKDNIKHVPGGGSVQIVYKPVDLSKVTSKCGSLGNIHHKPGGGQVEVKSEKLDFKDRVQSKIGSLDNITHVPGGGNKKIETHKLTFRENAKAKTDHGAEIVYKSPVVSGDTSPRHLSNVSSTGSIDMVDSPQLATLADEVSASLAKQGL

B1: Clone 26 (VH4Vκ1), humanised variant of clone #28, human IgG1 (antibody, V domains shown)
VH: QVQLQESGPGLVKPSETLSLTCTVSGFSLNNYDMSWVRQAPGKGLEWIGTVSTTYRRYYASWAKGRFTISKDTSSTTVDLQMTSLTAEDTATYFCAASGIWGRGTLVTVSS
VL: AQVLTQSTSPLSASVGDRVTITCQSSQRVYSNYLAWYQQKPGQPPKRLIFLASTLESGVPSRFSGSGSGTEFTLTISSLQCDDFATYYCAGTYTGSIWAFGGGTEVVIK
notes: also called VH4VK1
As to B1, the binding result with Bovine serum albumin is on record as “no binding (tested: supernatant 1:100)”. Besides, in assay [1], the Kd amounted to 57.6 nM, the “Relative KD” value came to 1.27 fold vs VH0VK0, the koff amounted to 0.00336 s⁻¹ and the on-rate constant (kon) came to 58300 M⁻¹ s⁻¹.

B2: Clone 23 (VH3Vκ2), humanised variant of clone #28, human IgG1 (antibody, V domains shown)
VH: QVQLQESGPGLVKPSETLSLTCTVSGFSLNNYDMSWVRQAPGKGLEWIGTVSTTYRRYYASWAKGRFTISKTSSTTVDLQMTSLTAEDTATYFCAASGIWGRGTLVTVSS
VL: AQVLTQSPSTLSASVGDRVTITCQSSQRVYSNYLAWYQQKPGQPPKRLIFLASTLESGVPSRFSGSGSGTEFTLTISSLQPDDFATYYCAGTYTGSIWAFGGGTKVEIK
notes: also called VH3VK2
Consider B2, for which the binding result in the assay with Bovine serum albumin is on record as “no binding (tested: supernatant 1:100)”. Further, in assay [1], the Kd is 51.3 nM, the “Relative KD” value worked out at 1.13 fold vs VH0VK0, the off-rate (koff) turned out to be 0.00253 s⁻¹ and the on-rate (kon) turned out to be 49400 M⁻¹ s⁻¹.

B3: Clone 15 (VH1Vκ2), humanised variant of clone #28, human IgG1 (antibody, V domains shown)
VH: QSLQESGGGLVKPSETLSLTCTVSGFSLNNYDMSWVRQAPGKGLEWIGTVSTTYRRYYASWAKGRFTISKTSSTTVDLKMTSLTAEDTATYFCAASGIWGRGTLVTVSS
VL: AQVLTQSPSTLSASVGDRVTITCQSSQRVYSNYLAWYQQKPGQPPKRLIFLASTLESGVPSRFSGSGSGTEFTLTISSLQPDDFATYYCAGTYTGSIWAFGGGTKVEIK
notes: also called VH1VK2
In the case of B3, in the assay with Bovine serum albumin, the binding result was “no binding (tested: supernatant 1:100)”. Moreover, in assay [1], the Kd is 44.1 nM, the “Relative KD” value was determined as 0.97 fold vs VH0VK0, the off-rate (koff) is 0.00294 s⁻¹ and the kon came out at 66800 M⁻¹ s⁻¹.

B4: Clone 22 (VH3Vκ1), humanised variant of clone #28, human IgG1 (antibody, V domains shown)
VH: QVQLQESGPGLVKPSETLSLTCTVSGFSLNNYDMSWVRQAPGKGLEWIGTVSTTYRRYYASWAKGRFTISKTSSTTVDLQMTSLTAEDTATYFCAASGIWGRGTLVTVSS
VL: AQVLTQSTSPLSASVGDRVTITCQSSQRVYSNYLAWYQQKPGQPPKRLIFLASTLESGVPSRFSGSGSGTEFTLTISSLQCDDFATYYCAGTYTGSIWAFGGGTEVVIK
notes: also called VH3VK1
Turning to B4, the binding result in the assay with Bovine serum albumin was “no binding (tested: supernatant 1:100)”. In addition, in assay [1], the Kd amounted to 43.9 nM, the “Relative KD” value turned out to be 0.97 fold vs VH0VK0, the koff stood at 0.00249 s⁻¹ and the kon came out at 56700 M⁻¹ s⁻¹.

B5: Clone 36 (VH6Vκ4), humanised variant of clone #28, human IgG1 (antibody, V domains shown)
VH: QVQLQESGPGLVKPSETLSLTCTVSGFSLNNYDMSWVRQAPGKGLEWIGTVSTTYRRYYADSVKGRFTISRDNSKNTLDLQMTSLTAEDTATYFCAASGIWGRGTLVTVSS
VL: DIQMTQSPSTLSASVGDRVTITCQSSQRVYSNYLAWYQQKPGQPPKRLIFLASTLESGVPSRFSGSGSGTEFTLTISSLQPDDFATYYCAGTYTGSIWAFGGGTKVEIK
notes: also called VH6VK4
As to B5, the binding result with Bovine serum albumin is “no binding (tested: supernatant 1:100)”. Further, in assay [1], the dissociation constant Kd is 123 nM, the “Relative KD” value worked out at 2.72 fold vs VH0VK0, the koff is 0.00406 s⁻¹ and the association rate constant (kon) is 33100 M⁻¹ s⁻¹.

B6: Clone 30 (VH5Vκ1), humanised variant of clone #28, human IgG1 (antibody, V domains shown)
VH: QVQLQESGPGLVKPSETLSLTCTVSGFSLNNYDMSWVRQAPGKGLEWIGTVSTTYRRYYASWAKGRFTISRDNSKNTLDLQMTSLTAEDTATYFCAASGIWGRGTLVTVSS
VL: AQVLTQSTSPLSASVGDRVTITCQSSQRVYSNYLAWYQQKPGQPPKRLIFLASTLESGVPSRFSGSGSGTEFTLTISSLQCDDFATYYCAGTYTGSIWAFGGGTEVVIK
notes: also called VH5VK1
B6: the binding result with Bovine serum albumin is listed as “no binding (tested: supernatant 1:100)”. In assay [1], the dissociation constant Kd was determined as 75.7 nM, the “Relative KD” value was 1.67 fold vs VH0VK0, the off-rate (koff) worked out at 0.00351 s⁻¹ and the kon was found to be 46300 M⁻¹ s⁻¹.

B7: Clone 14 (VH1Vκ1), humanised variant of clone #28, human IgG1 (antibody, V domains shown)
VH: QSLQESGGGLVKPSETLSLTCTVSGFSLNNYDMSWVRQAPGKGLEWIGTVSTTYRRYYASWAKGRFTISKTSSTTVDLKMTSLTAEDTATYFCAASGIWGRGTLVTVSS
VL: AQVLTQSTSPLSASVGDRVTITCQSSQRVYSNYLAWYQQKPGQPPKRLIFLASTLESGVPSRFSGSGSGTEFTLTISSLQCDDFATYYCAGTYTGSIWAFGGGTEVVIK
notes: also called VH1VK1
Take B7: the binding result with Bovine serum albumin is given as “no binding (tested: supernatant 1:100)”. For the same molecule, in assay [1], the equilibrium dissociation constant (Kd) stood at 36.6 nM, the “Relative KD” value was 0.81 fold vs VH0VK0, the off-rate (koff) came to 0.00308 s⁻¹ and the on-rate constant (kon) was determined as 84000 M⁻¹ s⁻¹.

B8: Clone 35 (VH6Vκ2), humanised variant of clone #28, human IgG1 (antibody, V domains shown)
VH: QVQLQESGPGLVKPSETLSLTCTVSGFSLNNYDMSWVRQAPGKGLEWIGTVSTTYRRYYADSVKGRFTISRDNSKNTLDLQMTSLTAEDTATYFCAASGIWGRGTLVTVSS
VL: AQVLTQSPSTLSASVGDRVTITCQSSQRVYSNYLAWYQQKPGQPPKRLIFLASTLESGVPSRFSGSGSGTEFTLTISSLQPDDFATYYCAGTYTGSIWAFGGGTKVEIK
notes: also called VH6VK2
B8: the binding result in the assay with Bovine serum albumin is recorded as “no binding (tested: supernatant 1:100)”. In addition, in assay [1], the Kd was 222 nM, the “Relative KD” value worked out at 4.9 fold vs VH0VK0, the koff is 0.00533 s⁻¹ and the kon came to 24000 M⁻¹ s⁻¹.

B9: Clone 33 (VH5Vκ5), humanised variant of clone #28, human IgG1 (antibody, V domains shown)
VH: QVQLQESGPGLVKPSETLSLTCTVSGFSLNNYDMSWVRQAPGKGLEWIGTVSTTYRRYYASWAKGRFTISRDNSKNTLDLQMTSLTAEDTATYFCAASGIWGRGTLVTVSS
VL: DIQMTQSPSTLSASVGDRVTITCQSSQRVSSSYLAWYQQKPGQPPKRLIFLASTLESGVPSRFSGSGSGTEFTLTISSLQPDDFATYYCAGTYTGSIWAFGGGTKVEIK
notes: also called VH5VK5
Regarding B9, the binding result with Bovine serum albumin was “no binding (tested: supernatant 1:100)”. For the same molecule, in assay [1], the Kd came to 60.6 nM, the “Relative KD” value worked out at 1.34 fold vs VH0VK0, the off-rate (koff) came to 0.00354 s⁻¹ and the kon came to 58400 M⁻¹ s⁻¹.

B10: Clone 25 (VH3Vκ5), humanised variant of clone #28, human IgG1 (antibody, V domains shown)
VH: QVQLQESGPGLVKPSETLSLTCTVSGFSLNNYDMSWVRQAPGKGLEWIGTVSTTYRRYYASWAKGRFTISKTSSTTVDLQMTSLTAEDTATYFCAASGIWGRGTLVTVSS
VL: DIQMTQSPSTLSASVGDRVTITCQSSQRVSSSYLAWYQQKPGQPPKRLIFLASTLESGVPSRFSGSGSGTEFTLTISSLQPDDFATYYCAGTYTGSIWAFGGGTKVEIK
notes: also called VH3VK5
On to B10, for which the binding result in the assay with Bovine serum albumin is given as “no binding (tested: supernatant 1:100)”. In assay [1], the Kd came out at 38.9 nM, the “Relative KD” value was determined as 0.86 fold vs VH0VK0, the off-rate constant (koff) amounted to 0.00316 s⁻¹ and the kon came out at 81300 M⁻¹ s⁻¹.

B11: Clone 29 (VH4Vκ5), humanised variant of clone #28, human IgG1 (antibody, V domains shown)
VH: QVQLQESGPGLVKPSETLSLTCTVSGFSLNNYDMSWVRQAPGKGLEWIGTVSTTYRRYYASWAKGRFTISKDTSSTTVDLQMTSLTAEDTATYFCAASGIWGRGTLVTVSS
VL: DIQMTQSPSTLSASVGDRVTITCQSSQRVSSSYLAWYQQKPGQPPKRLIFLASTLESGVPSRFSGSGSGTEFTLTISSLQPDDFATYYCAGTYTGSIWAFGGGTKVEIK
notes: also called VH4VK5
Take B11: the binding result with Bovine serum albumin is on record as “no binding (tested: supernatant 1:100)”. In assay [1], the Kd stood at 114 nM, the “Relative KD” value turned out to be 2.52 fold vs VH0VK0, the dissociation rate constant (koff) is 0.00409 s⁻¹ and the kon was 35900 M⁻¹ s⁻¹.

B12: Clone 37 (VH6Vκ5), humanised variant of clone #28, human IgG1 (antibody, V domains shown)
VH: QVQLQESGPGLVKPSETLSLTCTVSGFSLNNYDMSWVRQAPGKGLEWIGTVSTTYRRYYADSVKGRFTISRDNSKNTLDLQMTSLTAEDTATYFCAASGIWGRGTLVTVSS
VL: DIQMTQSPSTLSASVGDRVTITCQSSQRVSSSYLAWYQQKPGQPPKRLIFLASTLESGVPSRFSGSGSGTEFTLTISSLQPDDFATYYCAGTYTGSIWAFGGGTKVEIK
notes: also called VH6VK5
Turning to B12, the binding result in the assay with Bovine serum albumin is “no binding (tested: supernatant 1:100)”. For the same molecule, in assay [1], the Kd was determined as 123 nM, the “Relative KD” value turned out to be 2.72 fold vs VH0VK0, the koff turned out to be 0.00544 s⁻¹ and the kon turned out to be 44300 M⁻¹ s⁻¹.

B13: Clone 34 (VH6Vκ1), humanised variant of clone #28, human IgG1 (antibody, V domains shown)
VH: QVQLQESGPGLVKPSETLSLTCTVSGFSLNNYDMSWVRQAPGKGLEWIGTVSTTYRRYYADSVKGRFTISRDNSKNTLDLQMTSLTAEDTATYFCAASGIWGRGTLVTVSS
VL: AQVLTQSTSPLSASVGDRVTITCQSSQRVYSNYLAWYQQKPGQPPKRLIFLASTLESGVPSRFSGSGSGTEFTLTISSLQCDDFATYYCAGTYTGSIWAFGGGTEVVIK
notes: also called VH6VK1
Consider B13, for which the binding result with Bovine serum albumin was “no binding (tested: supernatant 1:100)”. In assay [1], the dissociation constant Kd came out at 141 nM, the “Relative KD” value amounted to 3.11 fold vs VH0VK0, the koff was 0.00525 s⁻¹ and the kon stood at 37300 M⁻¹ s⁻¹.

The values are drawn from patent US20220265819A1 (GEN2 NEUROSCIENCE, published 2022).
